Experiments:
[1] = biological target: T1, Cas12Max (xCas12i-N243R, v1.1) (N243R); experiment: cell_activity; PAM TTTG; OT-1; conditions: tags: NLS
T1 chain: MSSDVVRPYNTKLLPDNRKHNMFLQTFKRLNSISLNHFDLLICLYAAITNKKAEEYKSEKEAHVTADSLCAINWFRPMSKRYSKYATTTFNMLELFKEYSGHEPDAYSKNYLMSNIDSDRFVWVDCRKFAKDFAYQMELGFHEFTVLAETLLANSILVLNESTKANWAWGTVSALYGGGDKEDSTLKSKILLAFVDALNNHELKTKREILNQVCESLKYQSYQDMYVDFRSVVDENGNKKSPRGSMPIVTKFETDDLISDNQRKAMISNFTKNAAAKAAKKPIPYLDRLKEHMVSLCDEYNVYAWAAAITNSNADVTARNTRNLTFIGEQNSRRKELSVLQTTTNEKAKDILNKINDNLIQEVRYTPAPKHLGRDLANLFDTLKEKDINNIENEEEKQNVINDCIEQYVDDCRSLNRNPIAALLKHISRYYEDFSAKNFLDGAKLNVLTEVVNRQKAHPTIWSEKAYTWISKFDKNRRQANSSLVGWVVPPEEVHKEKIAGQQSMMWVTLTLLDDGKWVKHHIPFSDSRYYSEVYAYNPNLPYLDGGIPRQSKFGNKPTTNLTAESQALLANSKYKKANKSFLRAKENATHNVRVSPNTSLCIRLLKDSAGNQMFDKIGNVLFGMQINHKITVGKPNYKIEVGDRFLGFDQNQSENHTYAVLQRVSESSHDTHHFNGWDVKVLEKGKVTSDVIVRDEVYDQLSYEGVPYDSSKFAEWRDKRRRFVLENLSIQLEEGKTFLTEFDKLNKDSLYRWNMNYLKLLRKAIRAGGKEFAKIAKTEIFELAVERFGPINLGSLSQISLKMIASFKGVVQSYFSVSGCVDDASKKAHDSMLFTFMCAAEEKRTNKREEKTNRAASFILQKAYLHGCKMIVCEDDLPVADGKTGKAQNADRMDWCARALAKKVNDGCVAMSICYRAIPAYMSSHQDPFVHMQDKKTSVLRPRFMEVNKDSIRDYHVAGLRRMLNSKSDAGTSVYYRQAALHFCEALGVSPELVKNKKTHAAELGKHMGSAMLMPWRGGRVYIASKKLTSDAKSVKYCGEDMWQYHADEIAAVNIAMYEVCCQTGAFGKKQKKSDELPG
Method: (§1) HEK293T cells were cultured in 24-well tissue culture plates according to standard methods for 12 hours, before the reporter and expression plasmids were co-transfected into the cells using standard polyethyleneimine (PEI) transfection. The transfected cells were then cultured at 37° C. under 5% CO₂ for 48 hours. Then the cultured cells were analyzed by flow cytometry for BFP, EGFP, and mCherry fluorescent signals. A “blank” control group was also set up, where only the reporter plasmid was transfected, and no expression plasmid was introduced.
(§2) A dual plasmid fluorescent reporter system for evaluation of off-target dsDNA cleavage activity (off-target reporter system; referring to “Off-Target Reporter” in FIG. 1B) was established, which was similar to the dual plasmid fluorescent reporter system in Example 6 for evaluation of (on-target) dsDNA cleavage activity, except that the insertion sequence of the EGxxxxFP coding sequence contains an TTR off-target protospacer sequence (one of SEQ ID NOs: 127-129) containing one or more mismatches (bold, underlined) with a TTR-targeting spacer sequence (SEQ ID NO: 130) in the gRNA, rather than containing a TTR on-target protospacer sequence (SEQ ID NO: 130; which is the same as SEQ ID NO: 107 in Example 5); DR-T1 sequence (SEQ ID NO: 451) was used. To save drafting, the on-target protospacer sequence/spacer sequence in Table 7 refer to both the protospacer sequence (a DNA sequence) and the corresponding spacer sequence (an RNA sequence) with any “T” in the sequence when referring to a protospacer sequences standing for “T” and when referring to a such spacer sequence standing for “U”, although the assigned SEQ ID NO: 130 in the sequence listing is annotated as DNA.

[2] = biological target: T2, hfCas12Max (v6.3) (N243R,E336R,D892R); experiment: cell_activity; PAM TTTG; OT-1; conditions: tags: NLS
T2 chain: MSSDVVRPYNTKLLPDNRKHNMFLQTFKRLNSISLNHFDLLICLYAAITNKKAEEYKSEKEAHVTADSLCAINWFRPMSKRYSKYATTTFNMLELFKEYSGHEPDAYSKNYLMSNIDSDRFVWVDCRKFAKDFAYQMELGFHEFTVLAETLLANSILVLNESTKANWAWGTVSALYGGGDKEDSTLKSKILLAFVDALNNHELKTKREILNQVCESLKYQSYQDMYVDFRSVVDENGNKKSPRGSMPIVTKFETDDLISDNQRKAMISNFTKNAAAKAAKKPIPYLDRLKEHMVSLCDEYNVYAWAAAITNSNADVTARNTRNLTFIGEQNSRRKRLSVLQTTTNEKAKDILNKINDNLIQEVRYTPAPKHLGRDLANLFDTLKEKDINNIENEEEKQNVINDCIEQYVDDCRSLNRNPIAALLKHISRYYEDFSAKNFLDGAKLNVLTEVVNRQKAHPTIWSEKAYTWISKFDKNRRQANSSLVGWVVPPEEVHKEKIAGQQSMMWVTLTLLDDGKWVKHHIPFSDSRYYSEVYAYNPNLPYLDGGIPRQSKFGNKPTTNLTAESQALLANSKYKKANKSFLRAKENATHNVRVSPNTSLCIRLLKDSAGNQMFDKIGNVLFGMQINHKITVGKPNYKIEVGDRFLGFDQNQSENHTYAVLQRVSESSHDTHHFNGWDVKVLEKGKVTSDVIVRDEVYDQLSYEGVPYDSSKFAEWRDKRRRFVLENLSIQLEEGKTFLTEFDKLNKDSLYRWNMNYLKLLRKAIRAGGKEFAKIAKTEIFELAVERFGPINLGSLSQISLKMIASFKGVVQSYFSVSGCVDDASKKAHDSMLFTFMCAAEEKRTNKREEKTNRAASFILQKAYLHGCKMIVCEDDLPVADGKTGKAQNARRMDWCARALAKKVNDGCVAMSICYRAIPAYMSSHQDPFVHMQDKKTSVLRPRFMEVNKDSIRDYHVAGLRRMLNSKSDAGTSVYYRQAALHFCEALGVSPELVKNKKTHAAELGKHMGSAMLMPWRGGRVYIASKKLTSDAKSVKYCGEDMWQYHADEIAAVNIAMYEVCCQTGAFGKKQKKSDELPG
Method: as §1, §2

B1: TTR.2 crRNA ; TTR OT.1 (ssRNA ; dsDNA)
RNA: AUGACUCAGAAAUGUGUCCCCAGUUGACACUAGAAGGGAUAUACAAAGUGGA
DNA 1: TTTGTAGAAGGGATATAGAAAGTATC
DNA 2: GATACTTTCTATATCCCTTCTACAAA
activity [1]: 60.2% | activity [2]: 1.55%
